Target: T1, human PTK7 on human cancer cell lines (human, UniProt Q13308 31-1070)
T1 construct: Endogenous PTK7 of human tumour cell lines; also called PTK7 on A-431, NCI-H520, NCI-N87, SK-OV-3, BT-20, HCC1954, NCI-H226, NCI-H358, HCT116, PC-3, NCI-H292, NCI-H1975 cells
T1 sequence: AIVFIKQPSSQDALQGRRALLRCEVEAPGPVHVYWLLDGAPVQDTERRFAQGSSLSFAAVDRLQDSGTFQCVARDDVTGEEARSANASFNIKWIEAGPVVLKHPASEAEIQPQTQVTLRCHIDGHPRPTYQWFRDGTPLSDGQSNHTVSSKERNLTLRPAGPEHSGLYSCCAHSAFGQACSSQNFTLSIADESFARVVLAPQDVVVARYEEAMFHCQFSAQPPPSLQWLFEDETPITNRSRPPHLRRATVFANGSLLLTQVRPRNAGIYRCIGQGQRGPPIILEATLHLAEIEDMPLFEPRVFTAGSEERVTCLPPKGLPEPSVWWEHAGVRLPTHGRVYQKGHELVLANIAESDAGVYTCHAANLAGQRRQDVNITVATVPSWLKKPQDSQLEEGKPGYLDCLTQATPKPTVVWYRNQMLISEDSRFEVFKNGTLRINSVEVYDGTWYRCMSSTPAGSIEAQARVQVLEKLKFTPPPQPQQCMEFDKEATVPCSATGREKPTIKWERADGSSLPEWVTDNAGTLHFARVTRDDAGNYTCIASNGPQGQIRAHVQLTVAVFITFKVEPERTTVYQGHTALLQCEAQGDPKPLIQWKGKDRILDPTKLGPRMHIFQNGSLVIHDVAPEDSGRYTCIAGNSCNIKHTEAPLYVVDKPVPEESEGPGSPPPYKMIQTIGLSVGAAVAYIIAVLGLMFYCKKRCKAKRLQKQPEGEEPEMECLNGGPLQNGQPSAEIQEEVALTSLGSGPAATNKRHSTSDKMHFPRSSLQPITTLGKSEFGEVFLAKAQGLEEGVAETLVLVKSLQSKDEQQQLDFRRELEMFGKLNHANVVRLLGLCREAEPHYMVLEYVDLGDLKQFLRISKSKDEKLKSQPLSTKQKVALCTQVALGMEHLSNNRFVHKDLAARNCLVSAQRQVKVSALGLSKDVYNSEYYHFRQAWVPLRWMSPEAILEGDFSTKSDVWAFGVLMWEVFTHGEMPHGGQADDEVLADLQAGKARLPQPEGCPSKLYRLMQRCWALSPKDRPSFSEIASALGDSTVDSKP
Assay: flow cytometry on NCI-H1975 cells co-expressing PTK7 and TROP2; the single curve of the bispecific is not resolved between the two targets; anti-hIgG-Fc Alexa Fluor 647 secondary antibody, MFI [A]
Procedure: This experiment was performed to test the binding activities of the anti-PTK7/TROP2 bispecific antibodies to different tumor cell lines. NCI-H1975 cells or NUGC-4 cells were transferred to a 96-well plate at a density of 5×10⁴ cells/well respectively. The sample antibody was added to the 96-well plate, and incubated at 4° C. for 30 min.

- EC50 (read off the curve): ~0.7 µg/mL
B1: 3C4-18E9 (bispecific antibody, human IgG1, V domains shown)
VH 1: QVQLEQSRAEVKKPGESLRISCKGSGYSFTSYWISWVRQMPGKGLEWMGRIDPSDSYTNYNPSFQGHVTISADKSISTAYLQWSSLKASDTAMYYCARRDGSYFDFDYWGQGTLVTVSS
VH 2: QLQLQQSGPGLLKPSETLSLTCTVSGGSISSSYYFWGWIRQPPGKGLEWIGAIYYIGNTHYNPSLKSRVTISIDTSKNQFSLNLNSVTAADTAIYYCARYEDTWNWFDPWGQGTLVTVSS
VL: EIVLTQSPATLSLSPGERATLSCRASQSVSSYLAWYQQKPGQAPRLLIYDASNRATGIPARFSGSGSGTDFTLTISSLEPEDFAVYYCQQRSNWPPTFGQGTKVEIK
notes: which arm carries the knob is stated only for 3C4-6F7; also called anti-PTK7/TROP2 bispecific antibody 3C4-18E9

Reference: patent US20260250421A1 (BIOCYTOGEN PHARMACEUTICALS BEIJING, published 2026)
